Reference: patent US20100184088A1 (ONCOTHERAPY SCIENCE, published 2010)

T1: HA-tagged SMYD3 (human, UniProt Q9H7B4 1-428)
T1 construct: also called ZNFN3A1; not shown: HA tag
T1 sequence: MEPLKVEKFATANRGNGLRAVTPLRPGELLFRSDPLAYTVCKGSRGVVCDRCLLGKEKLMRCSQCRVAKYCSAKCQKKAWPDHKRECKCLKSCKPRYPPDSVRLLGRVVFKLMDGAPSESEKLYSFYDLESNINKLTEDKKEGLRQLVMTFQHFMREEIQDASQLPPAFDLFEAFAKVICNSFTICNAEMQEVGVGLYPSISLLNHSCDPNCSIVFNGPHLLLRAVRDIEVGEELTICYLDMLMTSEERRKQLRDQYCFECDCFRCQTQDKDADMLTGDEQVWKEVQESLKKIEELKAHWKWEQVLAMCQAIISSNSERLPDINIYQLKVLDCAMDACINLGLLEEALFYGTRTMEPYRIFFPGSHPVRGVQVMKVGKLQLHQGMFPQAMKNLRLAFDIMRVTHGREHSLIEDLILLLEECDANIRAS

T2: HA-tagged VEGFR1 (human, UniProt P17948 800-1338, limits assumed)
T2 construct: also called HA-VEGFR1; cytoplasmic domain of VEGFR1; not shown: HA tag (pCMV-HA vector)
T2 sequence: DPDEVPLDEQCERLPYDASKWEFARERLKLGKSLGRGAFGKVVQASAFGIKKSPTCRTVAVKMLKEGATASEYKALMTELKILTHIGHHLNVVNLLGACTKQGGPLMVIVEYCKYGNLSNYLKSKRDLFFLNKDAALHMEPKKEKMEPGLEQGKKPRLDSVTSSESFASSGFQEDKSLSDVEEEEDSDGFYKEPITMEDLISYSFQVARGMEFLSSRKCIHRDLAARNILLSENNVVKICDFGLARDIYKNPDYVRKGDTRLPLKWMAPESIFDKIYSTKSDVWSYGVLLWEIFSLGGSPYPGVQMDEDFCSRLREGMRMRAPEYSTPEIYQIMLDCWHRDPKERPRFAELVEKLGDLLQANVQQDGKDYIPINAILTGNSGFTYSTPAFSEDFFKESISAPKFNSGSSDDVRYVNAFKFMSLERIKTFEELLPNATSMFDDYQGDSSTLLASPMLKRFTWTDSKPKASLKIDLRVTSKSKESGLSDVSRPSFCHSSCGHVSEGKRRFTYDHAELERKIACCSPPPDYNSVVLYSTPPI

T3: recombinant GST-fused VEGFR1#1 (codons 800-1000)
T3 chain: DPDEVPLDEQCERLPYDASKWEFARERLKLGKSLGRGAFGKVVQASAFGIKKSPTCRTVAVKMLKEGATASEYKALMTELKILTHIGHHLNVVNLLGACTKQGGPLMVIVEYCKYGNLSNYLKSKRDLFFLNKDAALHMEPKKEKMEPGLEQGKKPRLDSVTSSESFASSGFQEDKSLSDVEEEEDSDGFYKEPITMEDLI


What was measured:
HA-tagged SMYD3 = biological target: T1, HA-tagged SMYD3; assay: co-immunoprecipitation (IP anti-HA, immunoblot anti-Flag), HEK293 cells
Method: Extraction of protein, IP, and Western blot analysis were performed according to methods described in the literature (Hamamoto R et al., S Nature cell biology 2004, 6(8): 731-40). Immunoblot analysis was carried out with anti-SMYD3 (Abcam, Cambridge, Mass.), anti-HA (Sigma, St Louis, Mo.), anti-Flag (Sigma), anti-GST (B D Pharmingen, San Diego, Calif.), anti-beta-actin (Sigma), or anti-phospho-Tyrosine (PY20; Sigma) antibodies. HRP-conjugated second antibody was used for the ECL Detection System (Amersham Biosciences, Piscataway, N.J.). Recombinant histone H3 and VEGFR1 (3108) were purchased from Upstate Biotechnology (Lake Placid, N.Y.) and Calbiochem (San Diego, Calif.), respectively.
Since VEGFR1 was methylated by SMYD3, the inventors investigated whether SMYD3 interacts with VEGFR1. The present inventors expressed Flag-tagged cytoplasmic regions of VEGFR1 together with HA-tagged SMYD3 in HEK293 cells. Immunoprecipitation with anti-HA antibody, and subsequent immunoblot analysis with anti-Flag antibody disclosed that SMYD3 associates with VEGFR1#1 (codons 800-1000) but not VEGFR1#2 or VEGFR1#3 (FIG. 3a). Consistently, IP with anti-Flag antibody and subsequent immunoblot analysis with anti-HA antibody corroborated the interaction between SMYD3 and VEGFR1#1 (FIG. 3a). […]

HA-tagged VEGFR1 = biological target: T2, HA-tagged VEGFR1; assay: co-immunoprecipitation (anti-HA or anti-Flag IP, western blot), HEK293 cells
Text: FIG. 3 depicts the interaction between SMYD3 and VEGFR1. Part a depicts the interaction between SMYD3 and VEGFR1, examined by a co-immunoprecipitation assay using extract from HEK293 cells expressing HA-tagged SMYD3 and different regions of Flag-tagged VEGFR1 (VEGFR1#1, #2, and #3). Part b depicts the interaction of endogenous SMYD3 with VEGFR1. Whole cell extracts from SNU423, SW480, and MCF7 cells expressing both SMYD3 and VEGFR1 were precipitated with anti-SMYD3 antibody. The precipitants were immunoblotted with anti-VEGFR-1 antibody (upper panel) or anti-SMYD3 antibody (lower panel). Part c depicts the association of VEGFR1 with the SET domain of SMYD3. Wild type or deleted forms of Flag-tagged SMYD3 (N-20, delta 2, or delta 3) were co-expressed with HA-tagged VEGFR1 in HEK293 cells. IP was performed with either anti-HA or anti-Flag antibody, and the precipitants were analyzed by western blot analysis with anti-Flag (upper panel) or anti-HA (lower panel) antibody. Part d depicts the interaction of the cytoplasmic region of VEGFR1 with the SET domain of SMYD3 in vivo. Flag-tagged wild type or the SET domain of SMYD3 was co-expressed with HA-tagged VEGFR1 in HEK293 cells. Extracts from the cells were precipitated with anti-Flag (upper panel) or anti-HA (lower panel) antibodies, and the precipitants were analyzed by western blot analysis with anti-HA antibody. […]

[1] = biological target: T3, recombinant GST-fused VEGFR1#1 (codons …)

| binding result (HA-tagged SMYD3) | Binder | also measured |
| --- | --- | --- |
| no binding | Flag-tagged VEGFR1#3 (codons 1200-1338) (receptor, Cytoplasmic fragment of VEGFR1 expressed in HEK293 cells; also called flag-VEGFR1#3; not shown: Flag tag (3xFlag vector)) APKFNSGSSDDVRYVNAFKFMSLERIKTFEELLPNATSMFDDYQGDSSTLLASPMLKRFTWTDSKPKASLKIDLRVTSKSKESGLSDVSRPSFCHSSCGHVSEGKRRFTYDHAELERKIACCSPPPDYNSVVLYSTPPI | – |
| no binding | Flag-tagged VEGFR1#2 (codons 1000-1200) (receptor, Cytoplasmic fragment of VEGFR1 expressed in HEK293 cells; also called flag-VEGFR1#2; not shown: Flag tag (3xFlag vector)) ISYSFQVARGMEFLSSRKCIHRDLAARNILLSENNVVKICDFGLARDIYKNPDYVRKGDTRLPLKWMAPESIFDKIYSTKSDVWSYGVLLWEIFSLGGSPYPGVQMDEDFCSRLREGMRMRAPEYSTPEIYQIMLDCWHRDPKERPRFAELVEKLGDLLQANVQQDGKDYIPINAILTGNSGFTYSTPAFSEDFFKESISA | – |
| – | Flag-tagged SMYD3-delta 3 (codons 250-428) (enzyme, Deleted form of SMYD3 lacking the SET domain; also called flag-SMYD3-D3; not shown: Flag tag) RKQLRDQYCFECDCFRCQTQDKDADMLTGDEQVWKEVQESLKKIEELKAHWKWEQVLAMCQAIISSNSERLPDINIYQLKVLDCAMDACINLGLLEEALFYGTRTMEPYRIFFPGSHPVRGVQVMKVGKLQLHQGMFPQAMKNLRLAFDIMRVTHGREHSLIEDLILLLEECDANIRAS | binding result (HA-tagged VEGFR1): no binding |
| – | Flag-tagged wild-type SMYD3 (p3XFLAG-CMV-SMYD3) (protein) MEPLKVEKFATANRGNGLRAVTPLRPGELLFRSDPLAYTVCKGSRGVVCDRCLLGKEKLMRCSQCRVAKYCSAKCQKKAWPDHKRECKCLKSCKPRYPPDSVRLLGRVVFKLMDGAPSESEKLYSFYDLESNINKLTEDKKEGLRQLVMTFQHFMREEIQDASQLPPAFDLFEAFAKVICNSFTICNAEMQEVGVGLYPSISLLNHSCDPNCSIVFNGPHLLLRAVRDIEVGEELTICYLDMLMTSEERRKQLRDQYCFECDCFRCQTQDKDADMLTGDEQVWKEVQESLKKIEELKAHWKWEQVLAMCQAIISSNSERLPDINIYQLKVLDCAMDACINLGLLEEALFYGTRTMEPYRIFFPGSHPVRGVQVMKVGKLQLHQGMFPQAMKNLRLAFDIMRVTHGREHSLIEDLILLLEECDANIRAS | in vitro MTase assay, methylation compared to recombinant histone H3 [1]: Approximately three-fold higher methylation of VEGFR1#1 was detected as compared to recombinant histone H3 in vitro (data not shown) |
